Measured values published in patent US20090312253A1.

Legend:
[1] = target: LRP6 expressed on HEK cells transfected with the LRP6 plasmid; assay: Dkk1-AP conditioned medium on LRP6-transfected HEK cells, AP activity in cell lysate, wild type = 100%
[2] = target: LRP6 expressed on HEK cells transfected with the LRP6 plasmid; assay: binding of Dkk1 to LRP6, assay not described for this mutant (data not shown)

reduction of binding to LRP6 against wild-type Dkk1 [1] [%] | reduction of binding to LRP6 against wild-type Dkk1 [2] [%] | Binder
> 50 | – | mouse Dkk1-AP mutant H210E (ligand, UniProt O54908 32-272, looked up, not shown: large carriers) TLNSVLINSNAIKNLPPPLGGAGGQPGSAVSVAPGVLYEGGNKYQTLDNYQPYPCAEDEECGSDEYCSSPSRGAAGVGGVQICLACRKRRKRCMRHAMCCPGNYCKNGICMPSDHSHFPRGEIEESIIENLGNDHNAAAGDGYPRRTTLTSKIYHTKGQEGSVCLRSSDCAAGLCCAREFWSKICKPVLKEGQVCTKHKRKGSHGLEIFQRCYCGEGLACRIQKDHHQASNSSRLHTCQRH
– | 40 | Dkk1 mutant L266A (ligand, mouse, UniProt O54908 32-272, looked up, not shown: large carriers) TLNSVLINSNAIKNLPPPLGGAGGQPGSAVSVAPGVLYEGGNKYQTLDNYQPYPCAEDEECGSDEYCSSPSRGAAGVGGVQICLACRKRRKRCMRHAMCCPGNYCKNGICMPSDHSHFPRGEIEESIIENLGNDHNAAAGDGYPRRTTLTSKIYHTKGQEGSVCLRSSDCAAGLCCARHFWSKICKPVLKEGQVCTKHKRKGSHGLEIFQRCYCGEGLACRIQKDHHQASNSSRAHTCQRH
> 50 | – | mouse Dkk1-AP mutant K217E (ligand, UniProt O54908 32-272, looked up, not shown: large carriers) TLNSVLINSNAIKNLPPPLGGAGGQPGSAVSVAPGVLYEGGNKYQTLDNYQPYPCAEDEECGSDEYCSSPSRGAAGVGGVQICLACRKRRKRCMRHAMCCPGNYCKNGICMPSDHSHFPRGEIEESIIENLGNDHNAAAGDGYPRRTTLTSKIYHTKGQEGSVCLRSSDCAAGLCCARHFWSKICEPVLKEGQVCTKHKRKGSHGLEIFQRCYCGEGLACRIQKDHHQASNSSRLHTCQRH
> 50 | – | mouse Dkk1-AP mutant R242E (ligand, UniProt O54908 32-272, looked up, not shown: large carriers) TLNSVLINSNAIKNLPPPLGGAGGQPGSAVSVAPGVLYEGGNKYQTLDNYQPYPCAEDEECGSDEYCSSPSRGAAGVGGVQICLACRKRRKRCMRHAMCCPGNYCKNGICMPSDHSHFPRGEIEESIIENLGNDHNAAAGDGYPRRTTLTSKIYHTKGQEGSVCLRSSDCAAGLCCARHFWSKICKPVLKEGQVCTKHKRKGSHGLEIFQECYCGEGLACRIQKDHHQASNSSRLHTCQRH
43 | – | mouse Dkk1-AP mutant H267E (ligand, UniProt O54908 32-272, looked up, not shown: large carriers) TLNSVLINSNAIKNLPPPLGGAGGQPGSAVSVAPGVLYEGGNKYQTLDNYQPYPCAEDEECGSDEYCSSPSRGAAGVGGVQICLACRKRRKRCMRHAMCCPGNYCKNGICMPSDHSHFPRGEIEESIIENLGNDHNAAAGDGYPRRTTLTSKIYHTKGQEGSVCLRSSDCAAGLCCARHFWSKICKPVLKEGQVCTKHKRKGSHGLEIFQRCYCGEGLACRIQKDHHQASNSSRLETCQRH
